Experimental data taken from patent EP4789680A1, “NOVEL PACE4 INHIBITOR AND USE THEREOF IN ANTI-OSTEOARTHRITIS” (Inflamax Pharmaceuticals Limited, priority 2023, dated 2025).
*1 amine or outer side, *2 acyl side, *3 side chain or, on linkers, in order; H or OH if unused. Where no end group is shown, it is not given here. [ ]: non-standard residue; d: D form. Ala(piperidin-4-yl) = O=C([C@H](CC1CCN([*:3])CC1)N[*:1])[*:2]; Phe(4-guanidino) = N=C(N)Nc1ccc(C[C@H](N)C(=O)O)cc1; Phe(4-CF3) = N[C@@H](Cc1ccc(C(F)(F)F)cc1)C(=O)O

biological target: T1, PACE4 (UniProt P29122 150-969, limits assumed); experiment: cell-based or functional assay
T1 sequence (looked up): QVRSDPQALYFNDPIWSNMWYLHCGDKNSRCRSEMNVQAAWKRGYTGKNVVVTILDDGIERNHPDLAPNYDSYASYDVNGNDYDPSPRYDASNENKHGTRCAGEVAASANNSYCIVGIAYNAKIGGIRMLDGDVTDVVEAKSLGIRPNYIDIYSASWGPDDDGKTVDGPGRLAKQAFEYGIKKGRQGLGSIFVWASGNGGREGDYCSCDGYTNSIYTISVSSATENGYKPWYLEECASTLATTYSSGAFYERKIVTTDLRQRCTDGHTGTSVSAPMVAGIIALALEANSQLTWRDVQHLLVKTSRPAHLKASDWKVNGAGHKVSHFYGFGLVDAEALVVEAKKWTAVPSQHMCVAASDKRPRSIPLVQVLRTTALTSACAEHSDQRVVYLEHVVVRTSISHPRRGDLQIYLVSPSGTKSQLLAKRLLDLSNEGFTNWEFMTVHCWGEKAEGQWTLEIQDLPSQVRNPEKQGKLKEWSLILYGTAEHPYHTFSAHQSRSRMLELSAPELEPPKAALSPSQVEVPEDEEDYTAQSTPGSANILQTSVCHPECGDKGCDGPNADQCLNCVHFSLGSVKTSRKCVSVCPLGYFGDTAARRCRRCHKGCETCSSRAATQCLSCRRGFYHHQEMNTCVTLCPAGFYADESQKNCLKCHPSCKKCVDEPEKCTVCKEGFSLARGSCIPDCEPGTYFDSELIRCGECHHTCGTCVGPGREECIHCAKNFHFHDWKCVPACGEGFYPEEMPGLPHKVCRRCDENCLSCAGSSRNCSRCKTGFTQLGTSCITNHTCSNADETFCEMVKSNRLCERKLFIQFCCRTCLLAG

Row | Binder | IC50 (µM), PACE4 enzyme inhibition, fluorogenic substrate pyroGlu-Arg-Val-Lys-Arg-methyl-coumaryl-7-amide
1 | Ac-RR[Ala(piperidin-4-yl)]KR[dT]-NH2 (SMILES CC(=O)N[C@@H](CCCNC(=N)N)C(=O)N[C@@H](CCCNC(=N)N)C(=O)N[C@@H](CC1CCNCC1)C(=O)N[C@@H](CCCCN)C(=O)N[C@@H](CCCNC(=N)N)C(=O)N[C@@H](C(N)=O)[C@H](C)O) [Ac-R-R-A(4-Pip)-K-R-dT-NH2] | 0.09 µM
2 | P[dR]R[Ala(piperidin-4-yl)]KR[dT]-NH2 (N-terminus assumed; SMILES C[C@H](O)[C@@H](NC(=O)[C@H](CCCNC(=N)N)NC(=O)[C@H](CCCCN)NC(=O)[C@H](CC1CCNCC1)NC(=O)[C@H](CCCNC(=N)N)NC(=O)[C@@H](CCCNC(=N)N)NC(=O)[C@@H]1CCCN1)C(N)=O) [P-dR-R-A(4-Pip)-K-R-dT-NH2] | 0.07 µM
3 | P[dR]R[Phe(4-CF3)]KR[dT]-NH2 (N-terminus assumed; SMILES C[C@H](O)[C@@H](NC(=O)[C@H](CCCNC(=N)N)NC(=O)[C@H](CCCCN)NC(=O)[C@H](Cc1ccc(C(F)(F)F)cc1)NC(=O)[C@H](CCCNC(=N)N)NC(=O)[C@@H](CCCNC(=N)N)NC(=O)[C@@H]1CCCN1)C(N)=O) [P-dR-R-F(4-CF3)-K-R-dT-NH2] | 0.02 µM
4 | [dP][dR]R[Ala(piperidin-4-yl)]KR[dT]-NH2 (N-terminus assumed; SMILES C[C@H](O)[C@@H](NC(=O)[C@H](CCCNC(=N)N)NC(=O)[C@H](CCCCN)NC(=O)[C@H](CC1CCNCC1)NC(=O)[C@H](CCCNC(=N)N)NC(=O)[C@@H](CCCNC(=N)N)NC(=O)[C@H]1CCCN1)C(N)=O) [dP-dR-R-A(4-Pip)-K-R-dT-NH2] | 0.08 µM
5 | Ac-RFKR[dT]-NH2 (SMILES CC(=O)N[C@@H](CCCNC(=N)N)C(=O)N[C@@H](Cc1ccccc1)C(=O)N[C@@H](CCCCN)C(=O)N[C@@H](CCCNC(=N)N)C(=O)N[C@@H](C(N)=O)[C@H](C)O) [Ac-R-F-K-R-dT-NH2] | 5 µM
6 | Ac-R[Ala(piperidin-4-yl)]KRT-NH2 (SMILES CC(=O)N[C@@H](CCCNC(=N)N)C(=O)N[C@@H](CC1CCNCC1)C(=O)N[C@@H](CCCCN)C(=O)N[C@@H](CCCNC(=N)N)C(=O)N[C@H](C(N)=O)[C@@H](C)O) [Ac-R-A(4-Pip)-K-R-T-NH2] | 0.3 µM
7 | Ac-[dR]R[Phe(4-CF3)]KR[dT]-NH2 (SMILES CC(=O)N[C@H](CCCNC(=N)N)C(=O)N[C@@H](CCCNC(=N)N)C(=O)N[C@@H](Cc1ccc(C(F)(F)F)cc1)C(=O)N[C@@H](CCCCN)C(=O)N[C@@H](CCCNC(=N)N)C(=O)N[C@@H](C(N)=O)[C@H](C)O) [Ac-dR-R-F(4-CF3)-K-R-dT-NH2] | 0.04 µM
8 | Ac-[dR]R[Phe(4-guanidino)]KR[dT]-NH2 (SMILES CC(=O)N[C@H](CCCNC(=N)N)C(=O)N[C@@H](CCCNC(=N)N)C(=O)N[C@@H](Cc1ccc(NC(=N)N)cc1)C(=O)N[C@@H](CCCCN)C(=O)N[C@@H](CCCNC(=N)N)C(=O)N[C@@H](C(N)=O)[C@H](C)O) [Ac-dR-R-F(4-Guan)-K-R-dT-NH2] | 0.015 µM
9 | Ac-RFKRT-NH2 [Ac-R-F-K-R-T-NH2] | 2 µM
10 | Ac-R[Ala(piperidin-4-yl)]KR[dT]-NH2 (SMILES CC(=O)N[C@@H](CCCNC(=N)N)C(=O)N[C@@H](CC1CCNCC1)C(=O)N[C@@H](CCCCN)C(=O)N[C@@H](CCCNC(=N)N)C(=O)N[C@@H](C(N)=O)[C@H](C)O) [Ac-R-A(4-Pip)-K-R-dT-NH2] | 0.1 µM
11 | Ac-R[Phe(4-guanidino)]KRT-NH2 (SMILES CC(=O)N[C@@H](CCCNC(=N)N)C(=O)N[C@@H](Cc1ccc(NC(=N)N)cc1)C(=O)N[C@@H](CCCCN)C(=O)N[C@@H](CCCNC(=N)N)C(=O)N[C@H](C(N)=O)[C@@H](C)O) [Ac-R-F(4-Guan)-K-R-T-NH2] | 0.023 µM
12 | P[dR]R[Phe(4-guanidino)]KR[dT]-NH2 (N-terminus assumed; SMILES C[C@H](O)[C@@H](NC(=O)[C@H](CCCNC(=N)N)NC(=O)[C@H](CCCCN)NC(=O)[C@H](Cc1ccc(NC(=N)N)cc1)NC(=O)[C@H](CCCNC(=N)N)NC(=O)[C@@H](CCCNC(=N)N)NC(=O)[C@@H]1CCCN1)C(N)=O) [P-dR-R-F(4-Guan)-K-R-dT-NH2] | 0.025 µM
13 | [dP][dR]R[Phe(4-guanidino)]KR[dT]-NH2 (N-terminus assumed; SMILES C[C@H](O)[C@@H](NC(=O)[C@H](CCCNC(=N)N)NC(=O)[C@H](CCCCN)NC(=O)[C@H](Cc1ccc(NC(=N)N)cc1)NC(=O)[C@H](CCCNC(=N)N)NC(=O)[C@@H](CCCNC(=N)N)NC(=O)[C@H]1CCCN1)C(N)=O) [dP-dR-R-F(4-Guan)-K-R-dT-NH2] | 0.034 µM
14 | [dP][dR]R[Phe(4-CF3)]KR[dT]-NH2 (N-terminus assumed; SMILES C[C@H](O)[C@@H](NC(=O)[C@H](CCCNC(=N)N)NC(=O)[C@H](CCCCN)NC(=O)[C@H](Cc1ccc(C(F)(F)F)cc1)NC(=O)[C@H](CCCNC(=N)N)NC(=O)[C@@H](CCCNC(=N)N)NC(=O)[C@H]1CCCN1)C(N)=O) [dP-dR-R-F(4-CF3)-K-R-dT-NH2] | 0.02 µM
15 | Ac-RR[Phe(4-CF3)]KR[dT]-NH2 (SMILES CC(=O)N[C@@H](CCCNC(=N)N)C(=O)N[C@@H](CCCNC(=N)N)C(=O)N[C@@H](Cc1ccc(C(F)(F)F)cc1)C(=O)N[C@@H](CCCCN)C(=O)N[C@@H](CCCNC(=N)N)C(=O)N[C@@H](C(N)=O)[C@H](C)O) [Ac-R-R-F(4-CF3)-K-R-dT-NH2] | 0.09 µM
16 | Ac-RR[Phe(4-guanidino)]KR[dT]-NH2 (SMILES CC(=O)N[C@@H](CCCNC(=N)N)C(=O)N[C@@H](CCCNC(=N)N)C(=O)N[C@@H](Cc1ccc(NC(=N)N)cc1)C(=O)N[C@@H](CCCCN)C(=O)N[C@@H](CCCNC(=N)N)C(=O)N[C@@H](C(N)=O)[C@H](C)O) [Ac-R-R-F(4-Guan)-K-R-dT-NH2] | 0.018 µM
17 | Ac-[dR]RFKR[dT]-NH2 (SMILES CC(=O)N[C@H](CCCNC(=N)N)C(=O)N[C@@H](CCCNC(=N)N)C(=O)N[C@@H](Cc1ccccc1)C(=O)N[C@@H](CCCCN)C(=O)N[C@@H](CCCNC(=N)N)C(=O)N[C@@H](C(N)=O)[C@H](C)O) [Ac-dR-R-F-K-R-dT-NH2] | 0.19 µM
18 | Ac-[dR]R[Ala(piperidin-4-yl)]KR[dT]-NH2 (SMILES CC(=O)N[C@H](CCCNC(=N)N)C(=O)N[C@@H](CCCNC(=N)N)C(=O)N[C@@H](CC1CCNCC1)C(=O)N[C@@H](CCCCN)C(=O)N[C@@H](CCCNC(=N)N)C(=O)N[C@@H](C(N)=O)[C@H](C)O) [Ac-dR-R-A(4-Pip)-K-R-dT-NH2] | 0.12 µM
19 | Ac-RRFKR[dT]-NH2 (SMILES CC(=O)N[C@@H](CCCNC(=N)N)C(=O)N[C@@H](CCCNC(=N)N)C(=O)N[C@@H](Cc1ccccc1)C(=O)N[C@@H](CCCCN)C(=O)N[C@@H](CCCNC(=N)N)C(=O)N[C@@H](C(N)=O)[C@H](C)O) [Ac-R-R-F-K-R-dT-NH2] | 0.46 µM
20 | Ac-RFKR-NH2 [Ac-R-F-K-R-NH2] | 12.7 µM
21 | Ac-R[Phe(4-guanidino)]KR[dT]-NH2 (SMILES CC(=O)N[C@@H](CCCNC(=N)N)C(=O)N[C@@H](Cc1ccc(NC(=N)N)cc1)C(=O)N[C@@H](CCCCN)C(=O)N[C@@H](CCCNC(=N)N)C(=O)N[C@@H](C(N)=O)[C@H](C)O) [Ac-R-F(4-Guan)-K-R-dT-NH2] | 0.021 µM
